For two molecules, Kd results are on record in patent publication US20180371051A1 (published 2018).

The target in assay [1] is T1, soluble, wild-type MICA (human, UniProt Q29983 24-299).
T1 chain: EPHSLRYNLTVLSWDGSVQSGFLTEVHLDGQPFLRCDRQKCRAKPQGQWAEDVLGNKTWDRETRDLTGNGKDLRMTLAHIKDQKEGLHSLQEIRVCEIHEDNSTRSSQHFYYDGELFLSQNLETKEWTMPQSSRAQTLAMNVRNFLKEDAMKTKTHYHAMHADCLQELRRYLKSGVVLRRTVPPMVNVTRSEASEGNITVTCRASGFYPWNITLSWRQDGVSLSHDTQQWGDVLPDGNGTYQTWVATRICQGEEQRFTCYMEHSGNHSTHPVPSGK
The experiment in a line: SPR; Two State Reaction model. For orientation: In SPR one partner is held on a chip, and binding of the other changes the refractive index at the surface.

For assay [2], the target named is T1, soluble, wild-type MICA. The experiment in a line: SPR; 1:1 binding model.
The target of assay [3] is T1, soluble, wild-type MICA. The experiment in a line: SPR.

B1: NKG2D^scd7 (heptamerized single-chain NKG2D dimer, Example 2) (receptor)
chain: GSRSAGAHAGWETPEGCEQVLTGKRLMQCLPNPEDVKMALEVYKLSLEIEQLELQRDSARQSTLDKELNQEVQIPLTESYCGPCPKNWICYKNNCYQFFDESKNWYESQASCMSQNASLLKVYSKEDQDLLKLVKSYHWMGLVHIPTNGSWQWEDGSILSPNLLTIIEMQKGDCALYASSFKGYIENCSTPNTYICMQRTVQIPLTESYCGPCPKNWICYKNNCYQFFDESKNWYESQASCMSQNASLLKVYSKEDQDLLKLVKSYHWMGLVHIPTNGSWQWEDGSILSPNLLTIIEMQKGDCALYASSFKGYIENCSTPNTYICMQRTV
modifications: FITC-conjugated for flow cytometry (two fluorophores per protomer)
The Kd is the concentration at which binding is half-saturated. Low readings indicate a tighter complex, high ones a looser complex. For the molecule B1, the Kd with soluble, wild-type MICA [1] came to 9.72 nM; with soluble, wild-type MICA [2], 4.6 nM; with soluble, wild-type MICA [3], 4.6 nM.

B2: NKG2D^scd (single-chain dimer form of NKG2D) (receptor)
chain: NQEVQIPLTESYCGPCPKNWICYKNNCYQFFDESKNWYESQASCMSQNASLLKVYSKEDQDLLKLVKSYHWMGLVHIPTNGSWQWEDGSILSPNLLTIIEMQKGDCALYASSFKGYIENCSTPNTYICMQRTVQIPLTESYCGPCPKNWICYKNNCYQFFDESKNWYESQASCMSQNASLLKVYSKEDQDLLKLVKSYHWMGLVHIPTNGSWQWEDGSILSPNLLTIIEMQKGDCALYASSFKGYIENCSTPNTYICMQRTV
Take B2: the Kd with soluble, wild-type MICA [3] is 13.8 nM.
